In this assay the target is recombinant wild type echinenone-binding protein from Evechinus chloroticus (apo-rEBP) (Evechinus chloroticus). The assay is described as follows: SEC; HiPrep 16/60 Sephacryl S-100 HR gel-permeation column, non-reducing conditions, 50 mM HEPES pH 8.0, 0.1 M NaCl, 10% v/v glycerol; final purification step; molecular weights estimated from the manufacturer's column standard curve.

Our source for the stoichiometry N values is publication PMC4156332.

Take “recombinant wild type echinenone-binding protein from Evechinus chloroticus (apo-rEBP) (natural protein)”: the stoichiometry N is 2.

In general, stoichiometry N refers to the number of molecules, sites or subunits per partner or assembly.
